Assays:
[1] = biological target: wild-type human APC segment 3 of Exon 15 (codons 1,099 to 1,696) with N-terminal VSV-G and HSV epito (human) (UniProt P25054)
[2] = biological target: human p53 oncoprotein (cellular tumor antigen p53), cell-free expressed from pETBlue-2 with C-terminal HSV epitope tag and polyhistidine tag (human) (UniProt P04637); experiment: protein adsorbed to polystyrene 96-well plate, anti-HSV-AP chemiluminescence; against the minus DNA negative control
[3] = biological target: human alpha-tubulin, cell-free expressed with C-terminal HSV epitope tag and polyhistidine tag (human) (UniProt P50607); experiment: as above
[4] = biological target: human glutathione-s-transferase A2 (GST A2), cell-free expressed from pETBlue-2 with C-terminal HSV epitope tag and polyhistidine tag (human) (UniProt P09210); experiment: cell-free expressed HSV-tagged GST captured on anti-HSV PC-antibody NeutrAvidin agarose beads; fractions quantified by fluorescence SDS-PAGE
human glutathione-s-transferase A2 (GST A2), cell-free expressed from pETBlue-2 with C-terminal HSV epitope tag and polyhistidine tag (human), sequence (P09210 other isoform, or with tags, fused parts or gaps): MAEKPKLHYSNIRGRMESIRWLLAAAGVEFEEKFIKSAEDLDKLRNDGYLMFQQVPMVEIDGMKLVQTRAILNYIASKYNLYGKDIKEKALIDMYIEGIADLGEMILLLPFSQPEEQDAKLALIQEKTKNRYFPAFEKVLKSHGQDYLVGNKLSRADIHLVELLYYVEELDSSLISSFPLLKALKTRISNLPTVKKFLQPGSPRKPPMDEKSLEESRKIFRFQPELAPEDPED

[5] = biological target: human dihydrofolate reductase (DHFR), cell-free expressed with C-terminal HSV and polyhistidine epitope tags (human) (UniProt P00374); experiment: antibody-protein complex photo-released from beads, held on nickel chelate plate by the protein's polyhistidine tag; bound anti-HSV antibody read with anti-[mouse IgG] HRP; against the minus DNA negative control
[6] = biological target: human glutathione-s-transferase A2 (GST A2), cell-free expressed from pETBlue-2 with C-terminal HSV epitope tag and polyhistidine tag (human) (UniProt P09210); experiment: as above
[7] = biological target: human glutathione-s-transferase A2 (GST A2), cell-free expressed from pETBlue-2 with C-terminal HSV epitope tag and polyhistidine tag (human) (UniProt P09210); experiment: BODIPY-FL labelled GST photo-released from magnetic beads and captured on anti-HSV antibody coated substrate; against the minus DNA blank

wild-type human APC segment 3 of Exon 15 (codons 1,099 to 1,696) with N-terminal VSV-G and HSV epito (human), sequence (P25054 other isoform, or with tags, fused parts or gaps limits assumed): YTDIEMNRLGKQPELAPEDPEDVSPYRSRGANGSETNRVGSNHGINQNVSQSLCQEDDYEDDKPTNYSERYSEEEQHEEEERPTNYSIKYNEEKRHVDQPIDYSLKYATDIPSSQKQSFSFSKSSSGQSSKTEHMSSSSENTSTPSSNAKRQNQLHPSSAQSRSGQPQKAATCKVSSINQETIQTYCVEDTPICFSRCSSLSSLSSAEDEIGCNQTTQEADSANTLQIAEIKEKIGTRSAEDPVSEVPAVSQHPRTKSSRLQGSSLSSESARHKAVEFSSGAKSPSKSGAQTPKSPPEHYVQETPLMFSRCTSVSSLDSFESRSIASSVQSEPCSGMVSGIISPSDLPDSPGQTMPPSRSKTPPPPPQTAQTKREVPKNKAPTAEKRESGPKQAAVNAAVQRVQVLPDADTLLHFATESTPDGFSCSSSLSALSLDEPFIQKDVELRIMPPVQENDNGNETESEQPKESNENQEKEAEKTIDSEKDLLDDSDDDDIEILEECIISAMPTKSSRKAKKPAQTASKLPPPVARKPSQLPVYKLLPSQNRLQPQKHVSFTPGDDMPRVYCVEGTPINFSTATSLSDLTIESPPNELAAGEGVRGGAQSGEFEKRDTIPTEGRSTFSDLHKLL

signal to noise ratio [2]	signal to noise ratio [3]	percent of total GST bound [4] [%]	percent of total GST not bound [4] [%]	signal to noise ratio [5]	signal to noise ratio [6]	signal to noise ratio [7]	Substance	signal to noise ratio [1]
–	–	–	–	–	–	–	anti-VSV antibody conjugated to the Cy3 fluorophore (clone P5D4; Sigma-Aldrich, St. Louis, Mo.)	186 :1
609 :1	140 :1	75	25	19 :1	108 :1	9 :1	mouse monoclonal anti-HSV tag antibody (EMD Biosciences, Inc., San Diego, Calif.)	–

— US20180017550A1
